Experimental findings from patent US20250326828A1 (STAIDSON BEIJING BIOPHARMACEUTICALS, published 2025) are described below.

Positions count from the first letter of the chain named.

The target of assay [1] is T1, human GDF15-hFc (human).
T1 construct: Recombinant hFc-tagged fusion protein expressed in 293F cells
T1 chain: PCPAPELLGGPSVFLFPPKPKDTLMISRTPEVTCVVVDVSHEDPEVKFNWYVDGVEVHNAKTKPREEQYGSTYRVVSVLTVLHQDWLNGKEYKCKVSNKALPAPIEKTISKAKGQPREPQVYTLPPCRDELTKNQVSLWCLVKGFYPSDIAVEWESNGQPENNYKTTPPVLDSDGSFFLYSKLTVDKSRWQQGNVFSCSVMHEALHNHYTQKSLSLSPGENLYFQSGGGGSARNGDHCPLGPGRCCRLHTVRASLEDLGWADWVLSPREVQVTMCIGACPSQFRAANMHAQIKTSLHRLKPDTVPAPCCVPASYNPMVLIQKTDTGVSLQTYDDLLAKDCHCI
The assay can be described thus: competition ELISA as in Example 2; GFRAL-his coated, antibody titrated against human GDF15-hFc. The method, then:
(§1) The ELISA assay was performed to measure the inhibitory activity of anti-GDF15 antibodies in concentration gradients to block GDF15 binding to GFRAL receptor. IC₅₀ values were used as a measure for neutralizing activity of candidate molecules. Briefly, 96-well plates were coated with 100 ng/well of GFRAL-his protein (SEQ ID NO: 74), and incubated for 1 h at 37° C. The plates were washed with PBST and then blocked for 1 hour at 37° C. with 1% BSA. Gradient-diluted antibodies (dose range 0˜10 μg/ml) was added into each well, immediately followed by equal volume of human GDF15-hFc protein ([…]). After incubation and washing, 100 μl of anti-human IgG secondary antibody (goat anti-human IgG-HRP, Sigma, A8667) was added to each well. Finally, TMB solution (100 μl/well) was added. 2M H₂SO₄ was used to stop the reaction. The OD450 was measured and the binding curve was generated by PRISM to calculate the IC₅₀ value.
A general note: In an ELISA, binding on a coated surface is turned into a signal by an enzyme label.

Assay [2] has as its target T2, human GDF15-his (human).
T2 chain: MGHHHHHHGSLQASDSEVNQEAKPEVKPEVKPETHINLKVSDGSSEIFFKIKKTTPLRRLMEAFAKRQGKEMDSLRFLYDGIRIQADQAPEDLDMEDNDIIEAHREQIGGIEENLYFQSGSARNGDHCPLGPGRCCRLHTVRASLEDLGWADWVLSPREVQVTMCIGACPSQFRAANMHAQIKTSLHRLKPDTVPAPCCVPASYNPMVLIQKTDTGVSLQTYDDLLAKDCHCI
Kind of assay: cell-based or functional assay.

The target in assay [3] is T2, human GDF15-his. Kind of assay: ELISA as in Example 2: plate coated with the antibody, graded human GDF15-his, anti-his-HRP, OD450; the sheet's x axis reads 'Log GDF15 Antibody (nM)'. The method, then: (§2) ELISA binding assay: The purified monoclonal antibody was subjected to a binding assay with human GDF15-his protein. The binding assay was designed to characterize the binding activity of the anti-GDF15 antibody. Briefly, a 96-well plate was coated with anti-GDF15 antibody (200 ng/well) and incubated for 1 hour at 37° C. The plates were washed with PBST and then blocked for 1 hour at room temperature using 1% BSA. Then 100 µl/well of gradient-diluted human GDF15-his solution (dose range 0-50 μg/ml) was added into plates. After incubation, 100 μl of anti-his tag secondary antibody (anti-his-HRP (1:2000), Bersee, cat #BHR790) was added to each well. Finally, the TMB solution (100 μl/well) was added. 2M H₂SO₄ was used to stop the reaction. The OD450 was measured, and the binding curves were generated by PRISM software to analyze the affinity of candidate antibodies to human GDF15 antigen, and EC₅₀ value were calculated.

Assay [4] deals with T1, human GDF15-hFc. Kind of assay: SPR, Biacore 8K; antibody on CM5 chip. How it is done: (§3) The binding affinity of anti-GDF15 antibodies for human GDF15, rhesus monkey GDF15, mouse GDF15 were characterized using Biacore 8K (GE). The anti-GDF15 antibodies were stabilized on sensor chip CM5. The binding affinity of antibody for GDF15 proteins from different species at various concentrations was measured. Using the SPR technology, the association and dissociation rates were measured, and binding affinity was determined.
In general terms: Surface plasmon resonance follows binding to a sensor surface in real time, without labels.

Assay [5] concerns the target T3, mouse GDF15-hFc (mouse).
T3 chain: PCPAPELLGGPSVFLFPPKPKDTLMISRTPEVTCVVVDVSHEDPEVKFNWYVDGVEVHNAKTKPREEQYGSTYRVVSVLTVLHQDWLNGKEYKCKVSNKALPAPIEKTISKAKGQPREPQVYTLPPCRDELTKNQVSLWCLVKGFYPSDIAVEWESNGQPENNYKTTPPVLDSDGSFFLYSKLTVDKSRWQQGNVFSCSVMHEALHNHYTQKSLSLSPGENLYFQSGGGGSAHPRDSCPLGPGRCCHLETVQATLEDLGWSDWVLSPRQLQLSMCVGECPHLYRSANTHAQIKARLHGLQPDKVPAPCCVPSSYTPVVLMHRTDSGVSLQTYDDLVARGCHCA
The assay can be described thus: SPR, Biacore 8K; antibody on CM5 chip. How it is done: as §3

The target of assay [6] is T4, rhesus monkey GDF15-hFc (rhesus monkey).
T4 chain: T1 chain with H237R, R252H, A285E, T294M, S295N, I343V
The assay can be described thus: SPR, Biacore 8K; antibody on CM5 chip. How it is done: as §3

Assay [7] deals with T2, human GDF15-his. The assay can be described thus: cell-based or functional assay.
For assay [8], the target named is T1, human GDF15-hFc. The assay can be described thus: competition ELISA; GFRAL-his coated, antibody titrated against human GDF15-hFc, anti-human IgG-HRP detection. The method, then:
as §1

The target in assay [9] is T2, human GDF15-his. Kind of assay: ELISA as in Example 2; antibody coated, human GDF15-his titrated. The method, then: as §2
Assay [10] concerns the target T2, human GDF15-his. The assay can be described thus: cell-based or functional assay.

B1: hum_R37-1 (antibody, V domains shown)
VH: EVQLVESGGGLVKPGGSLRLSCAASGFSLSNYYMSWVRQAPGKGLEWIGMISFSGTTYATWAKGRFTISKDSSKNTVYLQINSLKTEDTAVYFCARVVYAGWTYPLGIWGQGTLVTVSS
VL: DIQLTQSPSSLSASVGDRVTITCQASQSISSVLSWYQQKPGKPPKALIYEASILASGVPSRFSGSGSGTDFTLTISSLQPEDFATYYCQANYDVYNYGNPFGGGTKVEIK
notes: Tested in human IgG1 format
Regarding B1, in assay [1], the IC50 (in general, the point on the concentration scale where inhibition reaches its midpoint) amounted to 1.74 nM. Moreover, in assay [2], the “IC50 (read off the curve), SRE-luciferase signal in 293T-GFRAL/RET-Luc cells with human GDF15-his” value was approximately 0.2 nM. In assay [3], the EC50 (read off the curve) (as a rule, the concentration at which the effect is half-maximal) is approximately 50 nM.

B2: hum_R37-3 (antibody, V domains shown)
VH: B1 VH with S72D
VL: B1 VL
notes: Tested in human IgG1 format
As to B2, the IC50 in assay [1] came out at 1.73 nM. Also, the “IC50 (read off the curve), SRE-luciferase signal in 293T-GFRAL/RET-Luc cells with human GDF15-his” value in assay [2] is approximately 0.1 nM. In [3], the “EC50 (read off the curve)” value is approximately 60 nM.

B3: hum_R37-5 (antibody, V domains shown)
VH: B1 VH with I48V, K70R, S72D
VL: B1 VL
notes: Tested in human IgG1 format
With B3, in assay [4], binding was put at a Kd of 0.584 nM; the koff – broadly, the first-order rate constant of dissociation – is 6.95e-05 s⁻¹; the kon (usually the rate constant with which the complex forms) was determined as 119000 M⁻¹ s⁻¹. In [5], the dissociation constant (Kd) (commonly the equilibrium constant for the complex coming apart) was 106 nM, the dissociation rate constant (koff) was determined as 0.000869 s⁻¹ and the association rate constant (kon) came out at 8210 M⁻¹ s⁻¹. In [6], the affinity, expressed as Kd, was 1.23 nM; the koff was determined as 0.00421 s⁻¹; the kon was 3.43e+06 M⁻¹ s⁻¹. The molecule further had an IC50 in assay [1] of 1.9 nM. Also, the “IC50 (read off the curve), SRE-luciferase signal in 293T-GFRAL/RET-Luc cells with human GDF15-his” value in assay [2] was approximately 0.1 nM. Further, the “EC50 (read off the curve)” value in assay [3] was approximately 60 nM.

B4: GDF-R46-rabIg1 (antibody, V domains shown)
VH: SQTVKESGGRLVTPGTPLTLTCTASGFSLSNYYMSWVRQAPGEGLEWIGMISFSGTTHATWAKGRFTISKTSTTVDLKITSPTSEDTATYFCARVVYAGWTYPLGIWGPGTLVTVSS
VL: AQVMTQTPASVSEPVGGTVTIKCQASQSISSVLSWYQQKPGQPPKVLIYEASTLASGVPSRFKGSGSGTDFTLAISDLECADAATYYCQANYDVYNYGNPFGGGTEVVVK
notes: Full-length rabbit antibody: rabbit IgG1 heavy constant and rabbit light constant; also called GDF15-R46-rabIg1
On to B4, for which, in assay [7], the “IC50, 293T-GFRAL/RET-Luc SRE luciferase reporter cells stimulated with human GDF15-his (15 ng/ml)” value was 0.19 nM. This molecule showed an IC50 in [8] of 1.62 nM.

B5: hum_R54-1 (antibody, V domains shown)
VH: EVQLLESGGGLVQPGGSLRLSCAVSGFSLSSYDMTWVRQAPGKGLEWIGIISGSGNTYYASWAKGRFTISRDNSKNTVYLQMNSLRAEDTAVYFCARGILVYADYGDHNLWGQGTLVTVSS
VL: DIVMTQSPATLSVSPGERATLSCQASEDIYTNLAWFQQKPGQPPRLLIYAASTLASGIPARFSGSGSGTEFTLTISSLQSEDFAVYFCLGVYTYISAEGAFGQGTKVEIK
notes: Tested in human IgG1 format
For B5, the IC50 in assay [1] was 1 nM. Moreover, a half-maximal response in [9] (EC50) required 142 nM. In assay [10], the “IC50, GFRAL/RET reporter cell assay as in Example 2” value (from here on “IC50, GFRAL/RET reporter cell assay”) amounted to 0.11 nM.

B6: hum_R54-7 (antibody, V domains shown)
VH: B5 VH with G53N, N56S, R71K, N73S
VL: B5 VL with F87Y
notes: Tested in human IgG1 format
For B6, in [1], the IC50 worked out at 1.36 nM. Also, in assay [9], the EC50 (usually the concentration needed to bring the measured effect to its halfway point) was determined as 111 nM. Further, the “IC50, GFRAL/RET reporter cell assay” value in assay [10] came to 0.04 nM.

B7: hum_R54-3 (antibody, V domains shown)
VH: B5 VH with G53N, N56S
VL: B5 VL
notes: Tested in human IgG1 format
In turn, B7 returned an IC50 in assay [1] of 1.24 nM. Further, the EC50 in assay [9] was determined as 173 nM. In assay [10], the “IC50, GFRAL/RET reporter cell assay” value amounted to 0.07 nM.

B8: hum_R54-6 (antibody, V domains shown)
VH: B5 VH with G53S, R71K, N73S
VL: B5 VL with F87Y
notes: Tested in human IgG1 format
In turn, B8 registered an IC50 in assay [1] of 1.49 nM. In addition, the EC50 in [9] amounted to 123 nM. In assay [10], the “IC50, GFRAL/RET reporter cell assay” value is 0.05 nM.

B9: hum_R54-2 (antibody, V domains shown)
VH: B5 VH with G53S
VL: B5 VL
notes: Tested in human IgG1 format
Consider B9, for which, in assay [1], the IC50 was determined as 0.8 nM. For the same molecule, the response in assay [9] was half-maximal at 156 nM (EC50). Besides, the “IC50, GFRAL/RET reporter cell assay” value in assay [10] amounted to 0.1 nM.

B10: hum_R54-5 (antibody, V domains shown)
VH: B5 VH with R71K, N73S
VL: B5 VL with F87Y
notes: Tested in human IgG1 format
Regarding B10, in assay [1], the half-inhibitory concentration (IC50) was found to be 0.89 nM. The response in [9] was half-maximal at 98.4 nM (EC50). Also, the “IC50, GFRAL/RET reporter cell assay” value in [10] amounted to 0.08 nM.

B11: hum_R54-8 (antibody, V domains shown)
VH: B5 VH with N56S, R71K, N73S
VL: B5 VL with F87Y
notes: Tested in human IgG1 format
In assay [1], B11 had an IC50 of 1 nM. In assay [9], the EC50 was found to be 91.7 nM. The “IC50, GFRAL/RET reporter cell assay” value in [10] was determined as 0.03 nM.

B12: hum_R54-4 (antibody, V domains shown)
VH: B5 VH with N56S
VL: B5 VL
notes: Tested in human IgG1 format
Molecule B12 registered a concentration for half-maximal inhibition (IC50) in [1] of 1.14 nM. Besides, the EC50 in assay [9] came out at 167 nM. Further, the “IC50, GFRAL/RET reporter cell assay” value in assay [10] was 0.08 nM.

B13: GDF-R40-rabIg1 (antibody, V domains shown)
VH: QSVKESEGRLVTPGTPLTLTCTASGFSLSSHWMSWVRQAPGKGLEWIGFVSPSGRAYYTSWVNGRFTISKTSTTVDLKITSPTTEDTATYFCARGYTSGLDIWGPGTLVTVSS
VL: AIDMTQTPSPVSATVGGTVTISCQSSKSVVNGDWLAWYQQKPGQPPKLLIYDAATLASGVPSRFKGSGSGTQFTLTISDVQCADAATYYCAGVYNNDSDNGFGGGTEVVVK
notes: Full-length rabbit antibody: rabbit IgG1 heavy constant and rabbit light constant; also called GDF15-R40-rabIg1
In the case of B13, the “IC50, 293T-GFRAL/RET-Luc SRE luciferase reporter cells stimulated with human GDF15-his (15 ng/ml)” value in assay [7] turned out to be 0.27 nM. In [8], this molecule returned an IC50 of 1.63 nM.
